The chains are these.
B1: HDV Ribozyme (parent)
chain: GGCCGGCAUGGUCCCAGCCUCCUCGCUGGCGCCGGCUGGGCAACAUUCCGAGGGGACCGUCCCCUCGGUAAUGGCGAAUGGGACCCA

The series covers variants of B1. In words: self-cleavage, relative activity (ratio to wild type); higher = more cleavage; co-transcriptional.
In the case of G28A G34U, the self-cleavage turned out to be 0.0277. For G28C C84U, the self-cleavage was 0.0396. Regarding G28C G76C, the self-cleavage was 0.136. The same measure for G28U U46G: 0; for G28U U46C: 0; for G28U G38A: 0.0863.

As for G28U G38C, the self-cleavage turned out to be 0.0665. Under G28C C75A stands 0.113; under G28C C75U, 0.0361; under G28C C63U, 0.0369.

For the variant G28U G54U, the self-cleavage was 0.0712. As for G28U G54C, the self-cleavage was 0.234.

For G28U G54A, the self-cleavage was found to be 0.115. For the variant G28A G76A, the self-cleavage turned out to be 0.0563.

In the case of G28A G76U, the self-cleavage stood at 0.0923. As for G28C G52U, the self-cleavage is 0.0831. As for G28C G52C, the self-cleavage stood at 0.229. Consider G28C C57G, for which the self-cleavage came out at 0.115. The same measure for G28C C57A: 0; for G28C A83C: 0. Under G28C A83U stands 0.0437; under G28C A83G, 0.0542; under G28A U37C, 0.151. The same measure for G28A C57U: 0.163; for G28A C57G: 0; for G28A C57A: 0.0978. Consider G28C G68C, for which the self-cleavage is 0.138.

Regarding G28C G68U, the self-cleavage was 0.0426. The same measure for U27G G68A: 0.858; for U27G G68U: 0.858. Take G28A G82U: the self-cleavage worked out at 0.138.

Regarding G28A C62G, the self-cleavage is 0.111.

Take G28A C62A: the self-cleavage was 0.0297. Regarding G28A C49A, the self-cleavage came out at 0.111. Consider G28A C49U, for which the self-cleavage turned out to be 0.0683. Turning to G28A A51C, the self-cleavage is 0. Under G28A A51G stands 0.0326; under U27G G39A, 0.196; under G28C G40C, 0.113. Under G28A A42G stands 0.369; under G28U C44U, 0.0297; under G28U C44A, 0. The same measure for G28U C44G: 0.111; for G28A C32A: 0.234; for G28A C32G: 0. Turning to G28A A70G, the self-cleavage came out at 0.032. On to G29A C30A, for which the self-cleavage came out at 0.0264. Take G29A C30U: the self-cleavage is 0.095. The same measure for U27G C86A: 0.767; for U27G C86U: 1.15.

Consider U27G G82A, for which the self-cleavage turned out to be 0.534.

On to G28A C41U, for which the self-cleavage stood at 0.0875. As for G28A C41A, the self-cleavage turned out to be 0.13. The same measure for G28A G40A: 0.0615; for G28U C30A: 0.0923; for G28U C30U: 0. Regarding G28U C30G, the self-cleavage came to 0.0886. Under G28A U47A stands 0; under G28A U47G, 0.268; under G28U U37G, 0.18.

For the variant G28U U37C, the self-cleavage worked out at 0.141. The same measure for G28U C32G: 0.133. The same measure for G28U U65G: 0.128. Under G28U U65C stands 0.0707; under U27G U72G, 0.978; under G28A G80U, 0.0989. Consider G28C C36G, for which the self-cleavage was 0.0773.

As to G28U A78C, the self-cleavage was determined as 0.0923. The same measure for U27G G38A: 0.128; for G28A A77U: 0.104; for G28A C44U: 0.215.

On to G28A C63G, for which the self-cleavage stood at 0.148. In the case of G28A C63A, the self-cleavage worked out at 0.128.

For G28C G80A, the self-cleavage was found to be 0.193. Take G28C C62U: the self-cleavage came to 0.0369.

For the variant G28C A70C, the self-cleavage amounted to 0.104. The same measure for G28C A70G: 0. The same measure for G28C A70U: 0.101; for G28U G59A: 0.0936; for G28C U47A: 0.0536.

Regarding G28C U47G, the self-cleavage is 0.0536.

In the case of G28C U47C, the self-cleavage was found to be 0.0665. Under G29A A42C stands 0.104; under G28U C66A, 0.197. Under G28U C66G stands 0.277. In the case of U27G G52C, the self-cleavage was 1.02. As to G28A C36G, the self-cleavage worked out at 0.0519. Under G28U G67A stands 0.164; under G28U G67C, 0.0545; under G28C G59U, 0.0678. The same measure for G28C G59A: 0.185; for G28C G81C: 0.0875. The same measure for G28A C66U: 0.138.

For G29A A71U, the self-cleavage is 0.0615. On to G29A C33A, for which the self-cleavage is 0.104. G28A G55C: the self-cleavage stood at 0.0252. The same measure for G28A G55A: 0.153. The same measure for U27G G50A: 0.923. The same measure for G28C U72G: 0.138.

Regarding G28C U72C, the self-cleavage stood at 0.

Regarding G28A G81U, the self-cleavage turned out to be 0.0287. The same measure for G28A G81C: 0.0674; for G28A G35U: 0.0601; for U27G G81C: 0.277. As for U27G G76U, the self-cleavage was found to be 0.855. The same measure for U27G G76A: 0.98; for U27G G76C: 1.14; for G28C C49U: 0.111. The same measure for G28A C58U: 0.0228; for G28A C58A: 0.0639; for G28U G82U: 0.0468. The same measure for U27G G80U: 0.224; for U27G G80C: 0.213. With G28U C41U, the self-cleavage worked out at 0.0779.

As for U27G U60C, the self-cleavage stood at 0.804. Regarding U27G U60A, the self-cleavage worked out at 0.914. For G28A C64A, the self-cleavage came out at 0.121. The same measure for G28A C64G: 0.108; for G28A C64U: 0.117.

Take U27G G74C: the self-cleavage was 0.302. Consider G28C A45C, for which the self-cleavage amounted to 0.0594.

As for G28C A45G, the self-cleavage was found to be 0.0811. Under G28U U47G stands 0.095; under G28U U47A, 0.111. Under G28A A56G stands 0.135; under G28C G35A, 0.0326. The same measure for G28C G35C: 0.0554; for G28C G35U: 0.0997. Regarding G28U A56G, the self-cleavage came to 0. Under G28U A56U stands 0.0941; under G28U A71U, 0.246. Take U27G G73U: the self-cleavage was found to be 0.0723.

Take U27G G73A: the self-cleavage was determined as 0.396. Under U27G G35C stands 0.0594.

With U27G G35U, the self-cleavage was found to be 0.277. For the variant U27G G35A, the self-cleavage was determined as 0.295. The same measure for G28U C85U: 0.0639. For G28U C85G, the self-cleavage was found to be 0.108.

Regarding G28A G29A, the self-cleavage was 0.0978. Under G28A G29C stands 0.0519. Under G28A G29U stands 0.111. Take G28U G50C: the self-cleavage turned out to be 0.212.

Consider G28U G50U, for which the self-cleavage is 0.163. The same measure for G28U C61G: 0.0678; for G28A A78G: 0.185. Under G28A A78C stands 0.0378. The same measure for G28A A78U: 0.0308. Take G28C A77U: the self-cleavage was determined as 0.107. In the case of G28A C33A, the self-cleavage came to 0.107. As to G28U C84U, the self-cleavage amounted to 0.0489.

With G28U C84A, the self-cleavage amounted to 0.0594. The same measure for G28C G73C: 0.148; for G28C G73U: 0.154; for G28U G55U: 0.185. On to G28U G55A, for which the self-cleavage came to 0.0712.

On to G28U G74A, for which the self-cleavage worked out at 0.0528. As for G28U G74U, the self-cleavage is 0.0639. Under G28U G74C stands 0.0992; under U27G G59A, 0.855. U27G G59U: the self-cleavage is 1.03. Under U27G G59C stands 1.03.

For the variant G28A C86A, the self-cleavage worked out at 0.0256. Under G28U U69A stands 0.162; under G28U U69C, 0.0791. The same measure for G28C A78C: 0.0852; for G28C G54A: 0.0639. On to G28A G50C, for which the self-cleavage amounted to 0.0978.

These data come from the RNAGym collection of RNA variant scans (doi:10.7554/elife.80360).
